In patent publication US20240279281A1, “Peptide Inhibitors of Interleukin-23 Receptor” (Janssen Pharmaceutica NV, priority 2023, published 2024) one finds IL23R Reporter Assay IC50 and PBMC pSTAT3 IC50 data, which are given here for 8 molecules.

Starred links: 1 amine or outer side, 2 acyl side, 3 side chain; linkers in the order of their positions; H or OH if unused. Positions of bridges follow the written chain, without caps; N, C: chain ends. Non-standard residues stand in square brackets, D forms with d. No end group written: not given here. X10 = 2‑amino‑3‑(4-(2-guanidinoethoxy)phenyl)propanoic acid, N=C(N)NCCOc1ccc(CC(N[*:1])C(=O)[*:2])cc1; 2Nal(6-OH) = N[C@@H](Cc1ccc2cc(O)ccc2c1)C(=O)O; Trp(7-Me) = Cc1cccc2c(C[C@H](N)C(=O)O)c[nH]c12; d(hLys(Me3)) = C[N+](C)(C)CCCCC[C@@H](N)C(=O)O; AEF = NCCOc1ccc(C[C@H](N)C(=O)O)cc1; 3Pal = N[C@@H](Cc1cccnc1)C(=O)O; Lipidated = not defined here; Pen = CC(C)(S)[C@H](N)C(=O)O; αMeC = C[C@](N)(CS)C(=O)O; lipid = not defined here; Thp = NC1(C(=O)O)CCOCC1; Abu = CC[C@H](N)C(=O)O; PEG = not defined here; Sar = CNCC(=O)O

T1: interleukin-23 receptor (IL-23R), Q5VWK5
T1 chain: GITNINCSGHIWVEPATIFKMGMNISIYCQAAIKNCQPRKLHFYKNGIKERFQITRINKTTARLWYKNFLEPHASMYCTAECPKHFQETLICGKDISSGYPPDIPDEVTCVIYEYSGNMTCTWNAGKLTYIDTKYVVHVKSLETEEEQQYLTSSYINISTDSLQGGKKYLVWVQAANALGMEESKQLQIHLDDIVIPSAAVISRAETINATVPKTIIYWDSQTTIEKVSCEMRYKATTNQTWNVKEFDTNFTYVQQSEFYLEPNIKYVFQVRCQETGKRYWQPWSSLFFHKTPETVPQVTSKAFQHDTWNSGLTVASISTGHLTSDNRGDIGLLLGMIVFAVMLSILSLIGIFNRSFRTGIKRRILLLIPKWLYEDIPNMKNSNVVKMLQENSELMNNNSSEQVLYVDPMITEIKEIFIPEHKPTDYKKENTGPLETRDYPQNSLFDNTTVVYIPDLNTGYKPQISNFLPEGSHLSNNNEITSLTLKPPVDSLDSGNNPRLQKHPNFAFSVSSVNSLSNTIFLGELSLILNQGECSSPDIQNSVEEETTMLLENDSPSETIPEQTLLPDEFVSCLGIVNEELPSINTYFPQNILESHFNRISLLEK

B1: SEQ ID NO: 187 (peptide)
peptide: [d(hLys(Me3))][Pen]NT[Trp(7-Me)]K(Lipidated)[Pen][2‑amino‑3‑(4-(2-aminoethoxy)phenyl)propanoic acid][2‑amino‑3‑(6-hydroxynaphthalen-2-yl)propanoic acid][Thp]K(Ac)N[3Pal][Sar]
modifications: disulfide 2-7 (inferred); ends not checked; also: K6 lipidated lysine, lipid not given here
B2: SEQ ID NO: 189 (peptide)
peptide: [Pen]NT[Trp(7-Me)]K(Lipidated)[Pen][2‑amino‑3‑(4-(2-aminoethoxy)phenyl)propanoic acid][2‑amino‑3‑(6-hydroxynaphthalen-2-yl)propanoic acid][Thp]K(Ac)N[3Pal][Sar]
modifications: disulfide 1-6 (inferred); ends not checked; also: K5 lipidated lysine, lipid not given here
B3: SEQ ID NO: 29 (peptide)
peptide: R[Abu]NTWK(Ac)[αMeC][AEF][2Nal(6-OH)][Thp]K(Ac)N[3Pal][Sar]
modifications: ends and bridges not checked
B4: SEQ ID NO: 28 (peptide)
peptide: R[Abu]NTWK(Ac)[αMeC][AEF][2Nal(6-OH)][Thp]K(Ac)N[3Pal][Sar]
modifications: ends and bridges not checked
B5: SEQ ID NO: 183 (peptide)
peptide: [Pen]NT[Trp(7-Me)]K(Lipidated)[Pen][5‑(4-(2-amino-2-carboxyethyl)phenoxy)‑N,N,N‑trimethylpentan‑1‑aminium][2‑amino‑3‑(6-hydroxynaphthalen-2-yl)propanoic acid][Thp]K(Ac)N[3Pal][Sar]
modifications: disulfide 1-6 (inferred); ends not checked; also: K5 lipidated lysine, lipid not given here
B6: SEQ ID NO: 188 (peptide)
peptide: [Pen]NT[Trp(7-Me)]K(Lipidated)[Pen][2‑amino‑3‑(4-(2-aminoethoxy)phenyl)propanoic acid][2‑amino‑3‑(6-hydroxynaphthalen-2-yl)propanoic acid][Thp]K(Ac)N[3Pal][Sar]
modifications: disulfide 1-6 (inferred); ends not checked; also: K5 lipidated lysine, lipid not given here
B7: SEQ ID NO: 200 (peptide)
peptide: [Pen]NT[Trp(7-Me)]K(Lipidated)[Pen][2‑amino‑3‑(4-(2-aminoethoxy)phenyl)propanoic acid][2‑amino‑3‑(6-hydroxynaphthalen-2-yl)propanoic acid][Thp]K(PEG)N[3Pal][Sar]
modifications: disulfide 1-6 (inferred); ends not checked; also: lipid structure not given here, PEG size not given here
B8: SEQ ID NO: 24 (peptide)
peptide: [Pen]NT[Trp(7-Me)]K(Ac)[Pen][X10][2Nal(6-OH)][Thp]EN[3Pal][Sar]
modifications: ends and bridges not checked

In the test the target is T1, interleukin-23 receptor (IL-23R), Q5VWK5. The test can be described thus: cell-based or functional assay.
As to B1, the IL23R Reporter Assay IC50 was above 0.1 µM and the PBMC pSTAT3 IC50 was below 1 nM.

Consider B2, for which the IL23R Reporter Assay IC50 was above 0.1 µM and the PBMC pSTAT3 IC50 is below 1 nM.

Regarding B3, the IL23R Reporter Assay IC50 is below 0.01 µM and the PBMC pSTAT3 IC50 is below 0.1 nM.

With B4, the IL23R Reporter Assay IC50 was below 0.01 µM.

B5 came in with an IL23R Reporter Assay IC50 above 0.1 µM and a PBMC pSTAT3 IC50 below 1 nM.

As for B6, the IL23R Reporter Assay IC50 was above 0.1 µM and the PBMC pSTAT3 IC50 is below 1 nM.

The molecule B7 registered an IL23R Reporter Assay IC50 above 0.1 µM and a PBMC pSTAT3 IC50 below 1 nM.

The molecule B8 had an IL23R Reporter Assay IC50 below 0.01 µM and a PBMC pSTAT3 IC50 below 0.1 nM.
